According to patent publication US20240190918A1, “FIBRIL PEPTIDES” (Universität Ulm, priority 2021, published 2024):
Entries after “also recorded” stand apart in the source; their conditions may differ. Peptide text beside a SMILES is read from it.

Experiments:
[1] = test system: Human CD4+ and CD8+ T cells; assay: Viability of transduced human T cells, trypan blue staining; assay type: cell-based; details: 7 days
Protocol: FIG. 10: RM-8 nanofibrils enhance GALV-γ-RV transduction of T cells. […] GFP expression of CD3+ cells was analyzed by flow cytometry. Viability was determined by trypan blue staining. Human CD4+ and CD8+ T cells were isolated from Buffy coats of two donors. Indicated transduction enhancers were incubated with GAL V-γ-RV and then the mix was used to transduce T cells. Shown are average values (±SD). SD, standard deviation.
For the CAR T cell like process human CD4+ and CD8+ T cells were isolated from Buffy coats of two donors using RosetteSep™ Human CD4+ and CD8+ T Cell Enrichment Cocktail (STEMCELL Technologies) according to manufacturer's protocol. Isolated T cells were activated using Dynabeads™ Human T-Activator CD3/CD28 (Gibco™) according to manufacturer's protocol for three days in presence of 10 ng/ml interleukin-2 (IL-2). After 3 days the magnetic Dynabeads were removed using a magnet and T cells were cultured in presence of 9 ng/ml interleukin-7 (IL-7) and 10 ng/ml interleukin-15 (IL-15). After 1 day T cells were transduced with GALV-γ-RV using the transduction enhancers RM-8 (50 μg/ml), Vectofusin®-1 (10 μg/ml), or RetroNectin (20 μg/ml). […] After 7 days the transduced T cells were analyzed by flow cytometry.

Fibril stability by UPLC = assay type: physicochemical; details: 2 mg/ml; 10 min, 1 h, 24 h, 10 d at RT or 37° C.
Protocol: Fibrils were generated by dissolving lyophilized peptides in DMSO to 10 mg/ml followed by adding PBS to receive a final concentration of 2 mg/ml. Fibril stocks were incubated at room temperature (RT) and 37° C. and after 10 min, 1 h, 24 h and 10 days stability assays using ultra performance liquid chromatography (UPLC) with a reverse phase column was performed in collaboration with the Core Facility Functional Peptidomics (Ulm University). Shown is one individual experiment.
Since the stability of pharmaceutical products must be ensured during application (Grassi et al., 2019), we analyzed the stability of RM-8, which contains a C-terminal methionine, an amino acid sensitive to oxidation, by ultra performance liquid chromatography (UPLC). To that end, RM-8 nanofibrils were incubated for 10 min, 1 h, 24 h or 10 d at room temperature (RT) of 37° C. followed by UPLC analysis.

R5-tropic HIV-1 = assay: HIV-1 infection of TZM-bl cells, Tat-inducible β-galactosidase activity; details: 3 days; for n-fold enhancement of HIV-1 infection: virus treated with 150 μg/ml peptide
Protocol: HIV-1 was produced from pBRNL4.39-92TH14, a plasmid containing a CCR5 tropic molecular HIV-1 clone (Papkalla et al., 2002). Infectious HIV-1 stocks were prepared by transfection of 293T cells by calcium phosphate transfection and HIV-1 infection of TZM-bl cells was determined by detecting cellular β-galactosidase activity.
To determine the effect on HIV-1 infection, stocks of the CCR5 tropic HIV-1 were generated by transient transduction of 293T cells with proviral DNA and harvested 2 days later. The HIV-1 stock was titrated and a dilution factor of 125 was chosen for infection of TZM-bl cells to reach a maximal infection enhancement. HIV-1 virus was added to serially diluted IL-18 peptides and mixtures were used to infect TZM-bl cells which contain the reporter gene β-galacosidase under the control of the HIV-1-LTR promoter (Wei et al., 2002).

[2] = Thioflavin T (ThT) fluorescence, fibril formation; assay type: physicochemical; details: peptide 2 mg/ml in PBS, RT 10 min; 'except for' = no ThT signal detected
Text: The fibril peptide has the activity of forming fibrils in an aqueous solution, the term “fibril” relating to any threadlike structure or filament comprising, preferably consisting of, a multitude of fibril peptides; preferably, the fibrils are nanofibrils, i.e. have a diameter of from 2 to 20 nm, and/or a length of from 100 nm to 10 μm, preferably of from 100 nm to 5 μm. Preferably, aggregation of fibril peptides occurs spontaneously in aqueous solution, wherein an aqueous solution is a solution comprising at most 28% (v/v), preferably at most 15% (v/v), more preferably at most 10% (v/v), still more preferably at most 5% (v/v), most preferably at most 2% (v/v), organic solvents. Methods for determining the activity of forming fibrils are known to the skilled person and are shown herein in the Examples. Preferably, the activity of forming fibrils is determined by a Thioflavin T binding assay as specified herein in the Examples. The activity of forming fibrils may, however, also be determined by Transmission electron microscopy (TEM), Congo Red staining, measurement of conversion rate, and/or Fourier transform infrared (FTIR) spectroscopy; the aforesaid methods are known in the art.
The peptides were solved in HFIP (1,1,1,3,3,3-Hexafluoro-2-propanol) and were sonicated using an Ultrasonic cleaner. The peptides were stored at −20° C. and for each experiment they were freshly dissolved in DMSO to 10 mg/ml; to generate fibrils, the peptides were diluted in PBS to get 2 mg/ml or 1 mg/ml and incubated for 10 min at room temperature (RT).
The lyophilized RM-8 and its derivatives (Peptides 1-42) were solved in DMSO to 10 mg/ml and stored at 4° C. For each experiment they were freshly solved in PBS to 2 mg/ml and incubated for 10 min at RT.
(§1) Peptides derived from human interleukin-18 were identified by an in silico-screening approach where the human protein interleukin-18 (Q14116) was analyzed by the amyloid prediction tools ZipperDB, TANGO 2.0 and PASTA (FIG. 1A). To examine if these endogenous peptides form nanofibrils, the freshly prepared peptides were incubated with the amyloid specific dye Thioflavin T (ThT), which fluorescence increases upon binding to amyloid fibrils. […] To determine if the IL-18 peptides have the ability to form positively charged fibrils the zeta potential was measured.

[3] = Zeta potential of peptide nanofibrils; assay type: physicochemical; details: peptides incubated at RT for 10 min
Protocol: FIG. 1: Human interleukin-18 (IL-18) derived peptides form nanofibrils. (A) Table displaying sequences, physical and chemical parameters of peptides derived from IL-18. The positively charged amino acids are written in italics. (B) ThT fluorescence of the tested peptides and EF-C (Protransduzin®-A) which were incubated at RT for 10 min. (C) Zeta potential of peptides which were incubated at RT for 10 min. Shown are average values (±SD) of duplicates from two independent experiments. (D-J) Transmission electron microscopy images of EF-C (D), RK-10 (E-F), RM-8 (G-H), RS-7 (I), and FK-7 (J). […]
FIG. 5: RM-8 analogs from alanine scanning form positively charged nanofibrils. […] (B) ThT fluorescence of alanine scanning derived peptides, RM-8, QH-9 and EF-C. […]
as §1

With `CC[C@H](C)[C@H](NC(=O)[C@H](Cc1ccccc1)NC(=O)[C@@H](NC(=O)[C@@H](NC(=O)[C@@H](N)CCCNC(=N)N)[C@@H](C)O)[C@@H](C)CC)C(=O)N[C@H](C(=O)N[C@@H](CO)C(=O)N[C@@H](CCSC)C(=O)O)[C@@H](C)CC` [RM-8, RTIFIISM] (H-RTIFIISM-OH) the “cytotoxicity on T cells” value [1] was “without showing cytotoxicity; also recorded: not showing cytotoxicity” and the “stability of nanofibrils (UPLC)” value (Fibril stability by UPLC) was “stable for 10 days; also recorded: stable over time”.

In the case of “FK-7: peptide derived from human interleukin-18; sequence only in FIG. 1A (FIISMYK; Peptide FK-7)”, the “n-fold enhancement of HIV-1 infection” value (R5-tropic HIV-1) is reported as “weak or no effects”.

With “RS-7: peptide derived from human interleukin-18; sequence only in FIG. 1A (RTIFIIS; Peptide RS-7)” the “n-fold enhancement of HIV-1 infection” value (R5-tropic HIV-1) was “weak or no effects”.

With “RS-12: peptide derived from human interleukin-18; sequence only in FIG. 1A (RDNAPRTIFIIS; Peptide RS-12)” the “n-fold enhancement of HIV-1 infection” value (R5-tropic HIV-1) was “weak or no effects”.

With “RTIAIISM (fibril peptide 20) [Peptide A4, RM-8 analog from alanine scanning]” the “ThT signal (fibril formation)” value [2] was “except for”.

With RTIFGISM (Peptide 18) the “ThT signal (fibril formation)” value [2] was “except for”.

In the case of “RTIFIISA (fibril peptide 24) [Peptide A8, RM-8 analog from alanine scanning]”, the “ThT signal (fibril formation)” value [2] is reported as “except for”.

With RTIFIISMYK (fibril peptide 34) [RK-10] the “zeta potential (sign)” value [3] was “positive zeta potential” and the “enhancement of HIV-1 infection (in words)” value (R5-tropic HIV-1; serially diluted peptides) was “dose-dependably enhancement”.

With RTIFIKSM (Peptide 26) the “ThT signal (fibril formation)” value [2] was “except for”.

In the case of RTIFIRSM (Peptide 25), the “ThT signal (fibril formation)” value [2] is reported as “except for”.

With RTIPIISM (Peptide 17) the “ThT signal (fibril formation)” value [2] was “except for”.
